This assay deals with T1, p32 (Homo sapiens, UniProt Q07021).
T1 chain: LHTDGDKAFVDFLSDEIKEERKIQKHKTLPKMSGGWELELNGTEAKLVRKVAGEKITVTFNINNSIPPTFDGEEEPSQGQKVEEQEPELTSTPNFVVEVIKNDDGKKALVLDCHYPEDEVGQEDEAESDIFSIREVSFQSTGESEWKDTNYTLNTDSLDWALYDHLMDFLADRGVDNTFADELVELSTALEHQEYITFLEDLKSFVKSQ
As to the kind of experiment: SPR.

Bridges are numbered along the chain shown (N, C = ends). Where no end group is shown, it is not given here.

A word on the Kd: it is a measure of binding affinity in units of concentration. The low end stands for a tighter complex, the high end for a looser complex.

B1: Lyp-1 (peptide)
chain: CGNKRTRGC
modifications: disulfide 1-9
Regarding B1, binding was put at a Kd of 10.6 nM. This counts as double-digit nanomolar.
